The results in this text go back to US20230372503A1, “CONJUGATE OF FUNCTIONAL POLYPEPTIDE VARIANT, AND USE THEREOF” (PROABTECH INC., priority 2020, published 2023).

As usually defined, the half-life is the time in which the quantity being followed falls by half. A low value points to fast loss.

The data set in a line: Pharmacokinetics (PK) of hGH variant-HSA conjugate, blood level by sandwich ELISA. To be noted: 7-week-old male ICR mice, 65 nmol/kg intravenous tail injection, blood 0.5-24 h. It is filed as in vivo. How it is done:
For pharmacokinetic evaluation of the hGH variant-HSA conjugate, 7-week-old male ICR mice (n=6) were used. 65 nmol/kg each of hGH variant-HSA (L52) and hGH variant-HSA (Q141) was intravenously injected into the tail, blood collection was performed at 0.5, 4, 8, 12, and 24 hours after injection, and centrifugation was performed at 2,500 rpm for 10 minutes, followed by storing at −20° C. As a comparative group, Norditropin (somatropin, Novo Nordisk) was administered at the same concentration, and then compared with the above sample.
The hGH variant-HSA conjugate in blood was analyzed by sandwich ELISA (human growth hormone (GH) DouSet ELISA, R&D Systems). An anti-hGH capture antibody was added to coat an immunoplate at 4° C. overnight, and a reaction was blocked with 1% BSA in PBS at 37° C. for 1 hour. The blood sample collected and was diluted on the washed plate and left for 2 hours, and then treated with an anti-hGH detection antibody at room temperature for 2 hours. After treating the detection antibody with streptavidin-HRP at room temperature for 1 hour, 100 μL of a substrate was treated for 5 minutes and then 2N H2SO4 was treated to stop the reaction. Afterward, a microplate reader (Hidexsense, Finland) was used to measure an optical density at 450 nm. […]
Background: An ELISA detects its analyte on a solid surface through an enzyme-linked reagent.

As to “Norditropin: comparative group, Norditropin (somatropin, Novo Nordisk)”, the half-life came out at 30 min.
